Columns and labels:
[1] = biological target: T1, interaction between JUN1 and JunZ (c-Jun dimerization) (Homo sapiens, UniProt P05412); test: Reverse-2-hybrid screening for inhibition of c-Jun dimerization in yeast; assay type: cell-based; conditions: for yeast survival on media for counter-selection against AP-1 complex formation viz. c-Jun dimerization: initial reverse-two-hybrid screen, clones expressed from pYTB3; for recapitulation of the disruption phenotype: plasmid clones rescued and re-transformed, two assays
T1 construct: Partial fragments of c-Jun i.e., JunZ (774-927 bp) and Jun1 (558-1002 bp); expressed in transfected cells; host or cells: Saccharomyces cerevisiae strain PRT480, mated with library strain PRT51
Description: The yeast two hybrid system described by Vidal.M., In: The Yeast Two Hybrid System (eds. P. Bartel and S. Fields), Oxford University Press, New York (1997), was modified to add another counter selectable marker (CYH2) and to allow flexible titration of stringency by adjustment of sugar concentrations in the screening media.
Partial fragments of c-Jun i.e., JunZ (774-927 bp) and Jun1 (558-1002 bp), were cloned into yeast two-hybrid vectors pDD (a kanamycin-resistant variant of pGilda bait vector) and pJFK (pYesTrp prey vector (Invitrogen) modified by replacing the TRP1 yeast selection gene with HIS5), respectively, before co-transforming into Saccharomyces cerevisiae strain PRT480 (MATα, his3, trp1, ura3, 4 LexA-LEU2, lys2::3 cIop-LYS2, CAN^R, CYH2^R, ade2::2 LexA-CYH2-ZEO, his5::2 LexA-URA3-G418) using a standard lithium-acetate based chemical transformation protocol.
The Phylomer™ peptide library was transformed into S. cerevisiae strain PRT51 (MATα, his3, trp1, ura3, 6 LexA-LEU2, lys2::3 cIop-LYS2, CYH2^R, ade2::G418-pZero-ade2, met15::Zeo-pBLUE-met15, his5::hygro), using a high-efficiency lithium acetate-based chemical transformation protocol, slightly modified to maximize the number of transformants.
Bait/prey plasmid containing PRT480 haploids (10^8 cells) were mated with the Phylomer™ library (10^7 c.f.u.) according to a liquid mating protocol for pretransformed libraries (Clontech, USA), and plated to HW^− minimal media (minimal media lacking histidine and tryptophan) to select for diploids. These plates were scraped after 2 days incubation at 30° C., and the cells were washed, resuspended 1:1 (v/v) in yeast freezing solution (65% v/v glycerol, 0.1M MgSO4, 25 mM Tris-Cl pH 8.0), and frozen at −80° C. in 1 ml aliquots.
To select peptides that block formation of an AP-1 complex requiring the interaction between JUN1 and JunZ, about 1.5×10^7 c.f.u Jun/Phylomer™ diploids were thawed and outgrown overnight in HW^− to achieve log-phase growth. The following day, 4×10^7 cells were plated onto counter-selective media: HWU^− (lacking histidine, tryptophan and uracil), containing supplements of 0.02% galactose (gal), 2% raffinose (raff), 0.2 μg/ml uracil, 0.06% (w/v) 5-Fluoroorotic acid (FOA), 5 μg/ml cycloheximide. These plates were incubated for 7 days, then colonies were picked to HWU^− 0.02% gal, 2% raff, and then to HWL^− (lacking histidine, tryptophan and leucine) 0.02% gal, 2% raff to confirm blocking phenotype.
These included transformants comprising the clones designated PYC19 [DNA sequence set forth in SEQ ID NO: 26; encoded amino acid sequence set forth in SEQ ID NO: 27 (with FLAG epitope) and 28 (without FLAG epitope)]; PYC35 [DNA sequence set forth in SEQ ID NO: 34; encoded amino acid sequence set forth in SEQ ID NO: 35 (with FLAG epitope) and 36 (without FLAG epitope)]; PYC36 [DNA sequence set forth in SEQ ID NO: 43; encoded amino acid sequence set forth in SEQ ID NO: 44 (with FLAG epitope) and 45 (without FLAG epitope)]; PYC38/39 [DNA sequence set forth in SEQ ID NO: 52; encoded amino acid sequence set forth in SEQ ID NO: 53 (with FLAG epitope) and 54 (without FLAG epitope)]; and PYC41 [DNA sequence set forth in SEQ ID NO: 60; encoded amino acid sequence set forth in SEQ ID NO: 61 (with FLAG epitope) and 62 (without FLAG epitope)].
Subsequently, the individual plasmid clones were rescued from the yeast and re-transformed to confirm the disruption phenotype; 63% of the primary “hits”, including PYC 19, PYC35, […], PYC38/39 and PYC41, were positive in two assays for recapitulation of the phenotype.

[2] = tested on: AP-1 luciferase reporter in K562/AP1-Luc cells; test: Luciferase reporter gene assay of AP-1 dependent transcriptional activity; assay type: cell-based; conditions: pcDNA3-peptide transfection, 48 hours, normalised to renilla, vs pcDNA3 vector
Protocol: Phylomer™ peptides that inhibit an AP-1 complex formation as described in Example 1 were tested for their ability to decrease AP-1 controlled reporter expression (since Jun dimers are AP-1 moieties). A transient transfection assay in which the expression of each clone was plasmid driven was employed, thereby avoiding the synthesis of large numbers of peptides.
The K562 cell line was stably-transfected with the AP-1 luciferase reporter (AP1-Luc) of the Mercury Pathway Profiling kit (Clontech, U.S.A.), and the clonal cell line K562/AP1-Luc was established. In 6-well tissue culture plate format, K562/AP1-Luc cells were transfected with either pcDNA3 control, pcDNA3-JunDN (a dominant negative mutant of c-Jun), or pcDNA3-peptide, using Lipofectamine2000 (Life Technologies) according to manufacturer's instructions. Transfection reactions were incubated for 48 hours, cells collected and protein lysates extracted for luciferase assay according to Mercury Pathway Profiling kit and associated protocols.
Luciferase assays were performed in independent triplicates, and results for each peptide subjected to statistical analysis (SPSS software package) to determine if they were different to JunDN (positive control for AP-1 inhibition) or pcDNA-3 (negative control for AP-1 inhibition).
All AP-1 luciferase values were normalised to the renilla expression from a cotransfection control. Under these experimental conditions, approximately 30% of Phylomer™ peptides decreased AP-1 reporter activity by at least 50% when compared to the vector-only control (i.e., pcDNA3 vector). More particularly, the peptides designated PYC35, PYC36, PYC38/39 and PYC41 reduced AP-1 reporter activity to approximately 35%, 44%, 47% and 48%, respectively of the level observed for the control sample.

[3] = tested on: neurons around the lesion in the somatosensory cortex; test: Acute cortical injury (focal traumatic brain injury), immunoreactivity in perilesion area; assay type: in vivo; conditions: acute cortical injury of rat brain tissue in situ
Protocol: The ability of AP-1 signaling-inhibitory peptides to inhibit neuronal apoptosis was assessed by loss of MAP2 immunoreactivity in a focal model of traumatic brain injury (Chung et al., J. Neuroscience 23, 3336-3342, 2003; King et al., Neuropathol Appl Neurobiol. 27, 115-126, 2001).
Rats were subjected to acute cortical injury as previously described by Chung et al., J. Neuroscience 23, 3336-3342 (2003) and King et al., Neuropathol Appl Neurobiol. 27, 115-126 (2001). Briefly, male 240 g Hooded-Wistar rats were deeply anaesthetized using Isofluorane (2-3%) and were given an analgesic (Meloxycam, […]), by subcutaneous injection. Animals were immobilized in a Stoelting stereotactic frame, and a 21 gauge blunt Hamilton syringe was inserted into the Par1 region of the somatosensory cortex to a depth of 2 mm and was left in place for 10 minutes. Then, 0.5 μl of 5 μM peptide was administered through the syringe at a rate of 0.05 μl/min. Peptide (10 μl) was applied to 1 mm^2 of Gelfoam, which was implanted before suturing. At 1 day post-injury (PI), rats were deeply anaesthetized with sodium pentobarbital (60 mg/kg), then perfused transcardially with a 4% paraformalydehyde and 4% sucrose fixative solution in 0.01M PBS. Brains were removed and cryoprotected in 18% and 30% sucrose solutions, respectively and 40 μm coronal sections were collected serially through the injury site for immunohistochemical labelling. All animal procedures were approved by the University of Tasmania Animal Ethics Committee (Permit A008878).
Sections were labelled with Nissl Red, Nuclear Yellow and anti-MAP2 to allow a quantitative assessment of neuronal loss around the lesion. Sections from the lesion centre and 200 μm anterior and posterior to the centre of the injury, at layer III of the neocortex were included in the analysis and the area of MAP2 loss was scored by blinded observers. Three sections from each of three animals were examined for each treatment and significance assessed by ANOVA and post-hoc comparison (Tukey test).
All data are presented as mean±standard error. […]

T1 sequence (P05412 259-309 limits assumed): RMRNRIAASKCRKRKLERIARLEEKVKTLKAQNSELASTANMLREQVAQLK
T1 sequence (P05412 187-331 limits assumed): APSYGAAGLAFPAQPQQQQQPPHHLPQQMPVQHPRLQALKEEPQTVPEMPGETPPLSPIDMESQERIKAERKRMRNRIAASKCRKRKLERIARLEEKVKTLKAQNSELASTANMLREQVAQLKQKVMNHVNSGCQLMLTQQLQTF

| Substance | yeast survival on media for counter-selection against AP-1 complex formation viz. c-Jun dimerization [1] | recapitulation of the disruption phenotype [1] | AP-1 reporter activity, of the level observed for the control sample [2] | astrogliosis as determined by glial fibrillary acidic protein immunoreactivity [3] | loss of neurons as determined by MAP2 immunoreactivity [3] | microglial activation as determined by ferritin immunoreactivity [3] |
| --- | --- | --- | --- | --- | --- | --- |
| PYC19: Phylomer clone; encoded amino acid sequence SEQ ID NO: 27 (with FLAG epitope) and 28 (without FLAG epitope) (LINQSYAYPYIY; PYC19L peptide) | allowed yeast survival | positive |  |  |  |  |
| PYC35: Phylomer clone; encoded amino acid sequence SEQ ID NO: 35 (with FLAG epitope) and 36 (without FLAG epitope) (AYQSIRSGGIESSSKRER; PYC35L peptide) | allowed yeast survival | positive | approximately 35% | reduced astrogliosis | reduced loss of neurons | reduced microglial activation |
| PYC36: Phylomer clone; encoded amino acid sequence SEQ ID NO: 44 (with FLAG epitope) and 45 (without FLAG epitope) (GLQGRRRQGYQSIKP; PYC36L peptide) | allowed yeast survival | positive | ~44% |  |  |  |
| PYC38/39: Phylomer clone; encoded amino acid sequence SEQ ID NO: 53 (with FLAG epitope) and 54 (without FLAG epitope) (GLQGRRQPGQQPQGRWSGRALPAHR; PYC38/39L peptide) | allowed yeast survival | positive | ~47% |  |  |  |
| PYC41: Phylomer clone; encoded amino acid sequence SEQ ID NO: 61 (with FLAG epitope) and 62 (without FLAG epitope) (VSINQEHHRLLPL; PYC41L peptide) | allowed yeast survival | positive | ~48% |  |  |  |

Reference: US8063012B2, “Neuroprotective peptide inhibitors of AP-1 signaling and uses therefor” (Phylogica Limited, priority 2006, dated 2011)
